Measurements published in the DeepSol protein solubility set.

Assay: soluble on expression in E. coli; label from the status in PepcDB or PDB records

Sequence | soluble on expression in E. coli
MERAPLLELKGIRKRFGELEVLRGVDLALYPGEILALLGPSGCGKTTLLRVVAGLEVPDAGRVFLEGRDITALPPEKRGIGFVFQDYALFPHLTALGNVAFGLKGKDRLARARKALERVGMTLFQDRRPGELSGGQQQRVALARALAPGPKLVLLDEPFSSLDAGLRAATREEVRKVLKETGTAALLVTHDQEEALSFADRLGVMRGGEILQVGTPEEVYLRPKTPFVAQFLGRTNLLPGEGRGRYAETCLGRVPLAEAREGPLLLSLRPEALRLTPPGQGPQGEVVAREFKGHDLTYRVRLHGVQPEREVLVQEGPTCPFKVGDRVGLEVVGEGVALEGTPPAPVRQEA | soluble
KGTLYLVATPIGNLEDVTFRAIRTLKEADQIAAEDTRQTKKLLNHFDIATKLVSYHEHNKETMGKRLIDDLIEGRTIALVSDAGMPAISDPGYELVVSAIKEGIAVIPIPGA | not soluble
MTSKTSESGTGTQSTIVQLRNLPDLTEISHLEIDAPVVEILKKTVLFQLNSLNICISNFALDELVNLVTVQMDGMFRNLHNLTLLQRRSQASQADLKLLLREFNLDAPSLYQQFQASEFIKSKHSTEYEKLMSWSSLAALPHNEEDEEDELNNIEEQQNEINVLLPPSNPLEKQIPSWLPNFPPDHTYKFTPEFNHPITDLKTIKKEIVKESQESEKALLNLNKSLSHISSASNTPQPPGLDDEDAIEQQLEIWGNALEERKPTITEKSFNENNIEQYAKYRVELARERVTKFEVNQLKRTKNPFLKISETLYLPESPHQSHKTIQKTIELQFRKSMTLFMHNLPKVQKLKKEKIRMAKEERAKSLKRRQEELISQRTKREQDEGHDLELLLNNEHARDAADDTTTPNALNNSTIVINTNAEDEDDDINLFGILGSSEDENEMSSMPAENLVAESEPPTMTAQDTTNTTPVAHNTTNIDATTSHSPHSTPNENAPTSPPADIATDHDITM | soluble
MGHHHHHHSHMTLEEVRGQDTVPESTARMQGAGKALHELLLSAQRQGCLTAGVYESAKVLNVDPDNVTFCVLAAGEEDEGDIALQIHFTLIQAFCCENDIDIVRVGDVQRLAAIVGAGEEAGAPGDLHCILISNPNEDAWKDPALEKLSLFCEESRSVNDWVPSITLPE | soluble
MPMDSYEKRGYLDREFRLFHLSACLPGDISYHYHDFDKILIFLRGDVDYVIEGRSYHLNPYDIVLVGHHSIHKPLLRSGDVYERIVVYLSPGYVDSFRTENCDLSRCFKDAREHCSDVLRISSLKISSLYESLIRLEKACREDGYAKELYCRILFLEFMIHLNRAASGSHLEYVSTSPSSEKVLEIMRYISENPSADFTIDSLASRFFLSKFHMMRLFKQETGYTINSYINEKRLLMAKELLGRNLPVTEVCFRCGFRNYAAFLRAYKKNFGENPKSGKRPEGRTSVDNLHAPRTEHRLQKKPLSK | not soluble
MKREQILSLIAEIDDLLNALNMVVKEIEEKKREFSDKEPDQFILRALGSLLHDFYTIIEDIFELISSEMNGVRLDSFDWHKRLLNKMTLEIPGLRPAVISKRLKEMLDEYLRFRHVFRNVYGYLLQWERMKPLLEKAGAVYERFEEEIERFKDFLRELAEKM | not soluble
MGSDKIHHHHHHMADNKIIQHVYIVGSKGIPANYGGFETFVEKLTAGQENRQIKYHVASRFDNSEQAGKKQRFEYNGADVFSIDVPNIGSAQAIVYDYKALKEAIRISKQNQDKHPIFYVLANRIGPFAKHFAKEIHALGGRFYLNPDGHEWARAKWPKPVRKYWKYSEKKMVAAADLIIADNPEIEKYIKKEYSSFHPQTTYIAYGTDVQRSKLTMKDQKVRDWFKQKRITENNYFLVVGRFVPENNYETMIREFMTSRTKKDFVLVTNVEKNRFYERLKQRTHFDQDPRIKFVGTVYDQELLKYIRENAFAYFHGHEVGGTNPSLLEALSMTRLNMLIDVPFNRAVAKEGAMYWNKAIGNLTAQINQTETYDKKRIIDYTQAARKRVTDEFTWESIIAKYEELFVS | not soluble
MSLGLHACIDPIAVAHNLEVLRQRLGVGVDGPRIWATVKADAYGHGLHNVLPGLRAADGIAVRHLHEAHQCRRVGWSGPIMVYAGLTHEREAALLTLQQLHLVITDMTQLEWLPGKPLYSCAPWIWLRYIGATRLGGLDASEYRRAYARCRELQQHGALRGVGHLNHYANAASVGDLEREHADFEACIRGLPGPVSTCNSAAACVLPTMAARTDWVRPGLALYGVSPIPGRAGRDLGLRPAMTLRSTLCATQNLPAGASVGYGCTFVADQPMALGLVRCGYGDGYPHNPRASFPVQVDGVLTRTVGRISMDLMAVDLRPIPAAARGAPVVLWGSPQLPVEHIAHAAGTIAAELLTGLTARVPLMRADHAALLREGHHHHHH | soluble
MAHHHHHHMERTNLGHGAVGSLAQLCDELRKSYAAAKEIEQRDTTLTKSETANTLKETSNLFALGMEKLISSDGNVVEVKDAIALAEDAEREVAALRAEKARLQSTEDGHRSKLSATGSDAEVEAFVAYAKELSELHDHLFLARVVFKGVLTKRLEDIRDDRLSQQDKRFTDPKSWDVKKGVLERMLQSLRTKTAQLQLSAKTYLDEDEALFLEVMNLATEAGDHVRRGDAMREARDEKLKVFYAECAKLTGWCRQQLTNLEAMQEPDHVQEYCATLADNYPTMSNNFAVLFNSVQEYVQASLIPVHKALLEAEEVWLYLQVSTLERLSKTLFEIHPQSPLDVEVEKYSSYPEHAAKFLQDLERYLAAQHRQQDEVAELDSVHKECQEVLHTLSGQFAELPSEVHAFAQRAQALRAGYQCFREALLQRLTYVSPAASTVVESKRRQEEFENCVRELKSWAAEASHGESWRDIYSKIVEIKQMIKSEQASLEMKRERAVASGQSR | not soluble
MKIESSCPLPVKPGMTVAQATEACYQSELGADTYVEEFEGWVDIEALEPGDPGRKIVCCVEDGICITVEMKYMELPITDTFYGVDLNCQPGEGWMTSLERVARALEDKGLTVVKRDSYILLPDVFVAIEVGETIGWFDPAYWSREEFLEEAILA | not soluble
MSLSTLKREQIKKDLKDQEFDVVIIGGGITGAGIALDASERGMKVALVEMQDFAQGTSSRSTKLVHGGLRYLKQLQVGVVAETGRERAIVYENGPHVTTPERMLLPMHKGGSMGKFTTSIGLAMYDRLAGVKKAERKTMLNAKETLEKEPLVKKAGLKGGGSYVEYRTDDARLTIEVMKRAEEKGAKVINHTKSVHFTYDSNEKVNGIQVEDQISNETYPIKAKKVINASGPWVDEVRSGDYARNNKQLRLTKGVHIVIDQSKFPLGQAVYFDTEKDGRMIFAIPREGKAYVGTTDTFYDNNKTSPLANQEDRDYLIDAINYMFPDVNVADEDIESSWAGVRPLILEEGKDPSEISRKDEVWEGKSGLLTIAGGKLTGYRHMALEIVDLLSKRLKSEFGLKFDKCATKHLTISGGDVGGSANFDKFIEQKVEEAKSYQIDESTARHFASKYGSNAEELFKIAQTAQYQETGLPLDIYTELVYSIQNEMVYRPTDFFIRRTGKLYFKIDDVLNYKEQVIDVMAGLLGYTNIEKEAYTKELQIAIDEAQTGNHQPAVKELEHHHHHH | not soluble
MDGELRALLNAVLERLDVQGVYIEQMRMDIVKLQGSVKQLEDKVDRIQSDVEAMKKDMDAMKKDMDAMKKDMLGVKKDVAALKEGQVRQEKIMERLAIRSIEQEAEIDELRKEISA | not soluble
MKVSKFGGSSVSNATQIKKVLNIVNSDPERKIVIVSAPGKRHDNDIKTTDLLIRLYEKVINHLDYHDKKREIIQRYDDIVKELQMDESILRTIDVTLEHYINQLKNEPKRLLDALLSCGEDFNAQLIALYNNSQGIPTKYISPKEAGIFVTDVPQEAQILDSAYSEIKKLRDYDEKLIIPGFFGVSHEGYIVTFPRGGSDITGAIISSGVRATIYENFTDVSGIYKANPNIIKDPELIEEITYREMRELSYAGFSVFHDEALQPLYKDRIPVVIKNTNRPQDKGTFIVHDREINAKNVISGISCDKDFTVINIKKYLMNRQVGFTRKILGVLEDNNISFDHMPSGIDTISIVMRSKQIQNKETKVLNEIRQKCDVDELSIEHDLAILMIVGEGMNKVIGTANKITHALAESKINLKMINQGASEISMMFGIHVDDAEKAVLSTYEFCYHGVALKNLCDKNMAGDPLEHHHHHH | not soluble
MAHHHHHHMNLNVSKDVNNYMKINGIIKKVDIKRYYNKKLNNWSYEDNAKEFDKKDEKEYGSKYEYNNKFINEEEKKDEEKKYRYDEKIHKGLYSEDNSTSMNNRYNNNESTYKMPKEILNRHEKIDLNSLPIDEEIINNLKIILNIEKLYMYQYIIYNEILKNSKHLLIYNKTGTGKTLSYLLPLIQKLINDKFDCNKKVLIITQNIYLCKQLYIYILSIYPTLNVCILSDEKESYNMNNNINNDIIVNIKRNNINPNDKENNDMCDEKYGIHFYLCTPNKLEYFIKNYKNKSRNDKNVMNNILNNINTIVIDEFDYIVEYRKNILNFFFKKDLFNEIHNNNNIRDKNRFNHDIFNKSNYNIYLFTANINEVIKKKIYEHLNGFVFFDFINGIKEHIQKQVAEQHNFNIDVLKNSENVVQLLNKENKNESLCNLNITHFVCKINSASKYKYVCYFLEEFFFHKQKISQKVYNDMVYDEYDKLNYRNMIPMEENKFVNNSEKEGNMKRSNADKINKCIIFANTKEEVEKLYEISLLKPHAVMMHSELLTIQKNENINLFKVGKKNVLITTDIISRGLDIDNVIFILNYSPPTSPNDYIHRSGRTGRGKEKGICLTMYHKYEYRNVDKIMKYTKNKFEVILCPK | not soluble
MGHHHHHHSHMQTDIHDEPVNLGFGVQFEPDDLYRLRSQFLPLGKIGGKPSWLNPKNLPKSADLLCNVCEKPLCFLMQVSANGGINDPPHAFHRSLFLFVCRNPSCSRTNDAANLKAFRCQLPRANDYYSFDGPMDPDLDGDVADPRAPADGPGLCRICGCSAAKKCAKCQVARYCSQAHQVIDWPAHKLECAKAATDGSITDEPKNPRNAFCFKEFGVEIDQEYMPANLFDGLSDDEGDEEEEEGNDEDETEEEKKARIREFEKFVKENKGKNADMTKEDLDEATAEQPKDIDFDKFNRLVNLQPDQIIRYKRYGQPLRATGLSELPEVVEPCELCGAPRRFEMQLMPHLLSLIDVDAIGQSIDWASVYVYTCSASCQIADDGYAKEFVAKQDFL | soluble
MGSDKIHHHHHHMENGEMIKVLLANPRGFCAGVDRAIEIVERALSVHGAPIYVRHEVVHNRFVVEDLEKKGAVFVENLDEVPAGSILIFSAHGVSHAVRREAEAGQFKVFDATCPLVTKVHIEVAKMRDQGREIIMIGHAGHPEVEGTMGQAEGDGPSMYLVETEEDVEKLQVQDPAHLAYVTQTTLSVDDANRVIQALKGRFPNILGPKKDDICYATQNRQDAVKTMVKQCDLVIVVGSPNSSNSNRLCEVARNAGVDAYMLDRAEQLQEAWLKGKMRIGITAGASAPEVLVQEVISRLRQIVSEQAEREVVVEELRGVVESVVFPLPRN | not soluble
MSLKMSDIAKMAGVSKAAVSFALNGKPGVSDETRKKIFKVIKDQGYEPLRKHKKGGVRKIASISLIIIQDRTGMMNRSYASLPFFDTLVSELSQNVSGAGGQMQIVNLDINHLHEGLNNEALQQSKASIVLATDLNQKQVQLINRKLRNVIFVDNYFEYIQADFVSIDNFQGAYRAGKFIVKKGYRKIGYVASNHAISNFLQRRSGFRKAMREANIQIPPEYVFSLNPTELRGSLPALFRQKNNWPEAIFCEDDYMALRLLNALTRQGIKVPQDIAVMGFDDISEDTMVIPELTTIHVPITQIVDQAINQLQCKVADTDWLPQKCFISTKLIERESEGHHHHHH | not soluble
GSHMVPISFVFNRFPRMVRDLAKKMNKEVNFIMRGEDTELDRTFVEEIGEPLLHLLRNAIDHGIEPKEERIAKGKPPIGTLILSARHEGNNVVIEVEDDGRGIDKEKIIRKAIEKGLIDESKAATLSDQEILNFLFVPGFSTKEKVSEVSGRGVGMDVVKNVVESLNGSISIESEKDKGTKVTIRLPLTLAIIQALLVKVNNLVYAIPIANIDTILSISKEDIQRVQDRDVIVIRGEVIPVYRLWEVLQIEHKEELEEMEAVIVRVGNRKYGIVVDDLLGQDDIVIKSLGKVFSEVKEFSGAAILGDGSIALIINVSGIV | soluble
